The target of data set [1] is T1, f:GFP-WRN (Werner syndrome protein) (Homo sapiens, UniProt Q14191 1-1432). Briefly: single-molecule TIRF GFP photobleaching; no ATP; tetramer (binomial n=4); Binding buffer, pH and temperature not in the material; 24 nM GFP-WRN in the forked-DNA unwinding assay (1 nM RPA); NaCl tested at 15, 50 and 150 mM on the replication fork; GFP imaging without oxygen scavenger. To be noted: protein: recombinant; tags: N-terminal FLAG and GFP; chain copies: 2; label: Cy3 and Cy5 FRET pair; 5' biotin on leading parent; four-strand fork 1:3 2:4 3:4; 11-nt leading gap, 2-nt lagging gap; heterologous bases near junction.

Data set [2] has as its target T1, f:GFP-WRN (Werner syndrome protein). Briefly: single-molecule TIRF GFP photobleaching; no ATP; dimer preferred, heterogeneous up to 4 steps; 1 nM RPA did not change conclusion; Binding buffer, pH and temperature not in the material; 24 nM GFP-WRN in the forked-DNA unwinding assay (1 nM RPA); NaCl tested at 15, 50 and 150 mM on the replication fork; GFP imaging without oxygen scavenger. To be noted: protein: recombinant; tags: N-terminal FLAG and GFP; chain copies: 2; label: Cy3 and Cy5 in the single-stranded overhangs; 5' biotin on bottom strand; fork 1:2, 3' ssDNA arm on top and 5' ssDNA arm on bottom.

For data set [3] the target is unchanged. Kind of data set: single-molecule TIRF GFP photobleaching; 1 mM ATP-Mg2+, 2 min; active molecules dimeric; Binding buffer, pH and temperature not in the material; 24 nM GFP-WRN in the forked-DNA unwinding assay (1 nM RPA); NaCl tested at 15, 50 and 150 mM on the replication fork; GFP imaging without oxygen scavenger. To be noted: protein: recombinant; tags: N-terminal FLAG and GFP; chain copies: 2; label: Cy3 and Cy5 FRET pair; 5' biotin on leading parent; four-strand fork 1:3 2:4 3:4; heterologous distal arm ends.

T1 sequence (Q14191 whole entry): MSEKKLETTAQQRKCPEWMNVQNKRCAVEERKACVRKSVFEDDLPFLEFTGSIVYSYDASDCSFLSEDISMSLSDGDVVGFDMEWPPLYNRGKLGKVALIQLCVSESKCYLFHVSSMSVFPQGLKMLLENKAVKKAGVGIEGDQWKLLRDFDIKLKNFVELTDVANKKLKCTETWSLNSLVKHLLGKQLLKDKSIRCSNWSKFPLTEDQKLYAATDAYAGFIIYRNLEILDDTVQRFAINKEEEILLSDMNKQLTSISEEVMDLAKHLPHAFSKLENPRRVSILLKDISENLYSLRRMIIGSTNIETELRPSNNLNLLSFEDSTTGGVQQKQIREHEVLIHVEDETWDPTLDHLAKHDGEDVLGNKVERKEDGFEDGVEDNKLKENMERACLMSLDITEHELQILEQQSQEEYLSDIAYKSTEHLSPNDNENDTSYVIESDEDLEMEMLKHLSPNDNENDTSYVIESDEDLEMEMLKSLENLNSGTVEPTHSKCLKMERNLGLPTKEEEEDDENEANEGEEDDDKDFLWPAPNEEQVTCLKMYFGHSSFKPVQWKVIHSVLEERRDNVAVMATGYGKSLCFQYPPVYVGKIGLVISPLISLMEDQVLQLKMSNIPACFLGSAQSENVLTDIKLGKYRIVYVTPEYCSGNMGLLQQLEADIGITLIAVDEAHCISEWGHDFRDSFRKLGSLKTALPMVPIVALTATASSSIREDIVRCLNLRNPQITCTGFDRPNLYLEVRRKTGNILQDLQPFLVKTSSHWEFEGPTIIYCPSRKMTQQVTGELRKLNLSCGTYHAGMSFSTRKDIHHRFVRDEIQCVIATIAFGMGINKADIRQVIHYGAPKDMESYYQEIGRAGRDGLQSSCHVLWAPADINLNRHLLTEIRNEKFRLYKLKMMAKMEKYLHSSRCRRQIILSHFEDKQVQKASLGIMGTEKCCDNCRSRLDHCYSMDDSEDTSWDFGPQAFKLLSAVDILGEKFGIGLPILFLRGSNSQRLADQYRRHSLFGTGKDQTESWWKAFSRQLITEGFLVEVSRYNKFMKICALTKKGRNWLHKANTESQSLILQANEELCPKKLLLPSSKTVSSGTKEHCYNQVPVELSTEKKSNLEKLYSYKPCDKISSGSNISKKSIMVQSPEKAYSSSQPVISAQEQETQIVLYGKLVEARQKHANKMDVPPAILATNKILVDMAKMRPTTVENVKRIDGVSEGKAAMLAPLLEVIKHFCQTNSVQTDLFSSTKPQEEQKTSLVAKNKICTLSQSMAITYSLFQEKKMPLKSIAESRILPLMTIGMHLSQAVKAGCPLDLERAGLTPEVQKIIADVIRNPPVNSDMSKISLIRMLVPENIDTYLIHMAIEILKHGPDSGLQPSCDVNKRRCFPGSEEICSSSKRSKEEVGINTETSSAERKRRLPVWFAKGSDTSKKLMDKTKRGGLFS

B1: Model replication fork (Figure 1B) (structured_DNA)
DNA 1: TCGACAGGTCATGGCCGTACATGATATCCTCGAGCGGTCCTGTTGCAACTTA
DNA 2: TCAGAGTGTTAAGTTGCAACAGGACCGCTCGAGGATATCATGTACGGCCATGACCTGTCG
DNA 3: TGTTAACCCTAACCCTAAGAATTCGGCTTAAGTGAGTGTTAAGTTGCAACAGGACCGCTCGAGGATATCATGTACGGCCATGACCTGTCGA
DNA 4: CGACAGGTCATGGCCGTACATGATATCCTCGAGCGGTCCTGTTGCAACTTAACACTCTGAATAGCCGAATTCTTAGGGTTAGGGTTAACA
modifications: amino C6 dT at dye sites of the daughter strands
For the molecule B1, the binding result in data set [1] was “binds”.

B2: Forked DNA (Figure 1A) (structured_DNA)
DNA 1: GAGAAGCACGCTGCCGAATTCTACCAGTGCCTTGCTAGGACATGTTTGCCTTTTTTTTTTTTTTTTTTTTTTTTTTTTTT
DNA 2: TTTTTTTTTTTTTTTTTTTTTTTTGGCAAACATGTCCTAGCAAGGCACTGGTAGAATTCGGCAGCGTGCTTCTC
modifications: amino C6 dT at dye sites
Consider B2, for which, in data set [2], the binding result was “binds”.

B3: Replication fork with 15 bp non-homologous region (Figure 3D) (structured_DNA)
DNA 1: TCGACAGGTCATGGCCGTACATGATATCCTCGAGCGGTCCTGTTGC
DNA 2: TCAGAGTGTGCAACAGGACCGCTCGAGGATATCATGTACGATAGCTTGGCCGCAT
DNA 3: TGTTAACCCTAACCCTAAGAATTCGGCTTAAGTGAGTGTGCAACAGGACCGCTCGAGGATATCATGTACGGCCATGACCTGTCGA
DNA 4: ATGCGGCCAAGCTATCGTACATGATATCCTCGAGCGGTCCTGTTGCACACTCTGAATAGCCGAATTCTTAGGGTTAGGGTTAACA
modifications: amino C6 dT at dye sites of the daughter strands
In the case of B3, the binding result in data set [3] is recorded as “binds”.

The values are drawn from paper PMC9841404, “Werner syndrome protein works as a dimer for unwinding and replication fork regression”.
